Data set [1] has as its system cathepsin B and cathespin D.
Data set [2] relates to gastrin receptor-expressing 3T3 cells. The class given is cell-based. To be noted: methods of Example 7. Here is the method: Isogenic cell lines, one transfected with the target cell surface receptor and the parent cell line without detectable receptor expression, were used for determination of selective activity of toxin conjugates. Transfection of NIH/3T3, CHO and HeLa cells (American Type Culture Collection, Manassas, Va.) with gastrin receptor cDNA (prepared as described in Tarasova et al., J. Biol. Chem. 272: 14817-14824 (1997)) was performed as described (Tarasova et al., J Biol. Chem. 272(23): 14817-14824 (1997)). For the tests, the cells were seeded in 96-well plates at a density of 500-1000 cells per well and allowed to attach for 24 hours. The compounds were added to the cells at concentrations ranging from 10 pM to 10 μM and the cells were grown in a CO2 incubator in the presence of compounds for 4-5 days. The cell number was estimated with either the methylthiazolyldiphenyl-tetrazolium bromide (MTT) assay (Alley et al., Cancer Res. 48(3): 589-601 (1988)) or sulforhodamine assay as described in Skehan et al., J. Natl. Cancer Inst. 82(13): 1107-1112 (1990)).

Starred links: 1 amine or outer side, 2 acyl side, 3 side chain; linkers in the order of their positions; H or OH if unused. Non-standard residues stand in square brackets, D forms with d. Residues, ends and D or L forms follow the SMILES beside them. NMePhe(β,β-Me2) = CN[C@H](C(=O)O)C(C)(C)c1ccccc1; X1 = C/C(=C\[C@H](C(C)C)N(C)[*:1])C(=O)[*:2]; Tle = CC(C)(C)[C@H](N)C(=O)O; Nle = CCCC[C@H](N)C(=O)O

The term IC50 denotes the concentration that gives 50% inhibition. Lower therefore signals inhibition by little substance.

On to `CCCC[C@H](NC(=O)[C@H](Cc1c[nH]c2ccccc12)NC(=O)CNC(=O)[C@H](Cc1ccc(O)cc1)NC(=O)[C@H](C)NC(=O)[C@H](CCC(=O)O)NC(=O)[C@H](CCC(=O)O)NC(=O)[C@H](CCC(=O)O)NC(=O)[C@H](C)NC(=O)[C@H](CC(C)C)NC(=O)[C@H](C)NC(=O)[C@H](CC(C)C)NC(=O)[C@@H](NC(=O)/C(C)=C/[C@H](C(C)C)N(C)C(=O)[C@@H](NC(=O)[C@@H](NC)C(C)(C)c1ccccc1)C(C)(C)C)C(C)C)C(=O)N[C@@H](CC(=O)O)C(=O)N[C@@H](Cc1ccccc1)C(N)=O` (H-[NMePhe(β,β-Me2)][Tle][X1]VLALAEEEAYGW[Nle]DF-NH2), for which the “products of hydrolysis by lysosomal proteases” value in data set [1] is given as “generated mostly pentapeptide or SPA110 extended by Val-Leu on the C-terminus”. Also, in data set [2], the IC50 was found to be 1000 nM.

Values taken from patent US20050171014A1, “Conjugates of ligand linker and cytotoxic agent and related composition and methods of use” (Government of the United States of America, represented by …, priority 2003, published 2005).
